# Data published in US20240272082A1 (ARIZONA BOARD OF REGENTS ON BEHALF OF ARIZONA STATE …, published 2024).
# “And” between values parts separate entries of the source, which are not always exact repeats. Equal entries are not always repeated. No end group written: not given here.
# B1: SG pep2-8-2478 (M13 phage-displayed peptide, fused to pVIII) (peptide)
# peptide: SGTVFTSWEEYLDWV
# modifications: not fully specified
# notes: Samples A and B are identical replicates prepared separately; also called Sample 5A; Sample 5B; not shown: M13 major coat protein pVIII (display carrier) and any linker between peptide and pVIII
# Assays:
# [1] = target: T1, proprotein convertase subtilisin/kexin type 9 (PCSK9) (UniProt Q8NBP7 31-692, limits assumed); experiment: CSOD; phage immobilised on fiber probe, PCSK9 in solution, global first-order fit
# T1 construct: Analyte in solution in both CSOD and SPR; also called PCSK9 protein
# Source text: The fiber probes were switched from a well containing a buffer to a well containing PCSK9 at 0 s for the measurement of the association process (downward facing arrow) and then switched back to the buffer well at the time indicated by the upward facing arrow for the measurement of the dissociation process.
# The binding of different concentrations of PCSK9 proteins to the functionalized probes was studied in a 40-time diluted PBS buffer. For each measurement, a baseline was first established by dipping the functionalized fiber tip into a microplate well with a buffer; then, the fiber was switched to another well containing PCSK9 protein solution to measure the association curve. Finally, the fiber was moved back to the buffer well and the dissociation process was recorded. By fitting the kinetic curves at different concentrations globally with first order kinetics using Scrubber v.2.0c, the association rate constants (ka), dissociation rate constants (kd), and equilibrium constants (KD) for all samples are summarized in Table 2.
# [2] = target: T1, proprotein convertase subtilisin/kexin …; experiment: CSOD; comparison of KD values of Table 2
# T1 sequence (Q8NBP7 31-692 limits assumed): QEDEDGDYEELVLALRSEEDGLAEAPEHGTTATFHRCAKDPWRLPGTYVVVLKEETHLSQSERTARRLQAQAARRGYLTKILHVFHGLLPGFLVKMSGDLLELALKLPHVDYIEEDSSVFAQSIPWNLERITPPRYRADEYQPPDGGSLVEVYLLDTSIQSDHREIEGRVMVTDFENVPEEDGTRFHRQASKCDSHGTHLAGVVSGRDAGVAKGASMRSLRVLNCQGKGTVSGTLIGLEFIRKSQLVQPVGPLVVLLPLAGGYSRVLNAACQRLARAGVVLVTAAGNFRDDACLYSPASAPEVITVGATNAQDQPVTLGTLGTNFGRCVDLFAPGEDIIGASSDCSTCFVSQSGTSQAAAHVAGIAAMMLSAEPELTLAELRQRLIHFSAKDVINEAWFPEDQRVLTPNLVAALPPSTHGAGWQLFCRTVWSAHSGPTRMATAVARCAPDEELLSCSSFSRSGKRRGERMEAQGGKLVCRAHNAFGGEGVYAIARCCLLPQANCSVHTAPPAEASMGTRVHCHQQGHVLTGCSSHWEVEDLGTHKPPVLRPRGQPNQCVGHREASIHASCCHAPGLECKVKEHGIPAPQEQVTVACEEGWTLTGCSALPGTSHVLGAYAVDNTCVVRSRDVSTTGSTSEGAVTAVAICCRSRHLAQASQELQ
binder,measurement,setting,value
B1,Kd,[1],370 nM and 380 nM
same,koff,[1],0.00154 s⁻¹ and 0.00119 s⁻¹
same,kon,[1],4200 M⁻¹ s⁻¹ and 3130 M⁻¹ s⁻¹
same,fold affinity change against Sample #4 (no SG pep2-8-2478),[2],~2 fold
